The values that follow come from patent EP4748861A1 (Duality Biologics (Suzhou) Co., Ltd., dated 2025).

The target in assay [1] is T1, human HER3 on cells (human, UniProt P21860 20-1342).
T1 construct: whole, on cells; Used as target for cells that carry HER3 alone (HER3-CT26) and for the anti-HER3 mAb on tumor lines that carry both receptors; the cell line is named under assay; also called HER3-CT26; HER3/CT26 (EGFR-, HER3+++)
The experiment in a line: flow cytometry on HER3-CT26 cells, PE anti-human IgG Fc.

The target in assay [2] is T2, human HER3 (His-Avi Tag, Kactus Biosystem, HER-HM403) (human, UniProt P21860 20-643).
T2 construct: Bought soluble protein used as SPR analyte; also called hHER3; not shown: His-Avi tag
The experiment in a line: SPR, Biacore T200; antibody captured on ProA chip, antigen as analyte; 1:1 Langmuir fit.

Assay [3] concerns the target T3, human EGFR (His-Avi Tag, Kactus Biosystem, EGF-HM401) (human, UniProt P00533 25-645).
T3 construct: Bought soluble protein used as SPR analyte; also called hEGFR; not shown: His-Avi tag
The experiment in a line: SPR, Biacore T200; ratio of affinities.

The target in assay [4] is T4, human EGFR on cells (human, UniProt P00533 25-1210).
T4 construct: whole, on cells; the cell line is named under assay; also called EGFR-CT26; EGFR/CT26 (EGFR+++, HER3-)
Nature of the assay: flow cytometry on EGFR-CT26 cells, PE anti-human IgG Fc.

Assay [5] addresses T5, monkey EGFR (rhesus EGFR, C-His Tag, Kactus Biosystem, EGF-CM101) (rhesus monkey, UniProt P55245 25-645, limits assumed).
T5 construct: Bought soluble protein used as SPR analyte; not shown: C-terminal His tag
The experiment in a line: SPR, Biacore T200; antibody captured on ProA chip, antigen as analyte; 1:1 Langmuir fit.

In assay [6] the target is T6, monkey HER3 (rhesus HER3, C-His Tag, Kactus Biosystem, HER-CM403) (rhesus monkey, UniProt H9ERZ8 20-643).
T6 construct: Bought soluble protein used as SPR analyte; not shown: C-terminal His tag
T6 sequence (H9ERZ8 entry or part of it): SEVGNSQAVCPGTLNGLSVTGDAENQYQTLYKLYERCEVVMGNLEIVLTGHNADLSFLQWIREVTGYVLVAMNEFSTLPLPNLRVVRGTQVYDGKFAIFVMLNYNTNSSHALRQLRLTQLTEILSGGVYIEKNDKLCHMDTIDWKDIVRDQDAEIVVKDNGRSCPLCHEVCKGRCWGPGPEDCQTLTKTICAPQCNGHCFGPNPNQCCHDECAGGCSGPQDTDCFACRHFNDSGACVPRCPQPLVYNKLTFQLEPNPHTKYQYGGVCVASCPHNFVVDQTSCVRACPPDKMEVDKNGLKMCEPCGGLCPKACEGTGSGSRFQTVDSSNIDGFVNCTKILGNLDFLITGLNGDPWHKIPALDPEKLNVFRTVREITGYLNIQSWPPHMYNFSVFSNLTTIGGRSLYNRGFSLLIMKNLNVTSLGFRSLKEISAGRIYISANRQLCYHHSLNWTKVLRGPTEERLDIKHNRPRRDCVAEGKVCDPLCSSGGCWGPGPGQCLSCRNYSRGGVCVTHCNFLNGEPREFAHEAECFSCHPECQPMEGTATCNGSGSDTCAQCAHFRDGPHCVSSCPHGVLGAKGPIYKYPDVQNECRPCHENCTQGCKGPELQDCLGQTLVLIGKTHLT
The description is as above.

The target of assay [7] is T3, human EGFR (His-Avi Tag, Kactus …). The assay is described as above.

B1: anti-HER3 mAb (antibody, human IgG1, kappa, V domains shown)
VH: QVQLQESGPGLVKPSETLSLTCTVSGYSITSAYYWNWIRQPFGKGLEWMGYISYDGRNNFNPSLKNRVTISRDTSKNQFSLKLSSVTAADTAVYYCARDGDYDYFDYWGQGTTVTVSS
VL: DIQMTQSPSSLSASVGDRVTITCRASQDISNYLNWYQQKPGKAPKLLIYYTSILHSGVPSRFSGSGSGTDYTFTISSLQPEDIATYFCQQGDTLPPTFGGGTKLEIKR
notes: expressed in CHO cells; also called HER3 parent mAb; parent HER3 antibody
B1 showed an EC50 in assay [1] of 0.28 nM. In addition, in assay [2], the affinity, expressed as Kd, was 0.493 nM; the koff was determined as 0.000379 s⁻¹; the kon is 768000 M⁻¹ s⁻¹.

B2: DBXT001-01 (bispecific antibody, human IgG1, kappa)
heavy 1: not shown
light 1: not shown
heavy 2: not shown
light 2: DIQMTQSPSSLSASVGDRVTITCRASQDISNYLNWYQQKPGKAPKLLIYYTSILHSGVPSRFSGSGSGTDYTFTISSLQPEDIATYFCQQGDTLPPTFGGGTKLEIKSSASTKGPSVFPLAPSSKSTSGGTAALGCLVKDYFPEPVTVSWNSGALTSGVHTFPAVLQSSGLYSLSSVVTVPSSSLGTQTYICNVNHKPSNTKVDKKVEPKSC
notes: H1/L1 are the EGFR arm, H2/L2 the HER3 arm; one arm for each antigen; also called BsAb DBXT001-01; EGFR-HER3 BsAb
As to B2, in assay [3], the “fold weaker affinity than its affinity for HER3” value was ~16 fold. The “fold weaker affinity than the parent EGFR antibody” value in assay [3] was ~3 fold. The EC50 in assay [4] came to 1.9 nM; in assay [1] it was 1.96 nM. For the same molecule, the dissociation constant Kd came to 0.56 nM in assay [2], 11.3 nM in assay [5], 0.563 nM in assay [6] and 9.29 nM in assay [7]. The koff in assay [2] is 0.00018 s⁻¹; in assay [5] it was 0.000534 s⁻¹; in assay [6] it was 0.000157 s⁻¹; in assay [7] it was 0.00055 s⁻¹. Besides, the kon is 322000 M⁻¹ s⁻¹ in assay [2], 47200 M⁻¹ s⁻¹ in assay [5], 278000 M⁻¹ s⁻¹ in assay [6] and 59200 M⁻¹ s⁻¹ in assay [7].
